From patent US20260116920A1 (PEPTIDREAM, published 2026)
Starred links: 1 amine or outer side, 2 acyl side, 3 side chain; linkers in the order of their positions; H or OH if unused. Positions of bridges follow the written chain, without caps; N, C: chain ends. Non-standard residues stand in square brackets, D forms with d. Primed or numbered codes have the meaning given here. No end group written: not given here. E(PEG8Me) = (S)-30-amino-27-oxo-2,5,8,11,14,17,20,23-octaoxa-26-azahentriacontane-31-oic acid, COCCOCCOCCOCCOCCOCCOCCOCCNC(=O)CC[C@H](N[*:1])C(=O)[*:2]; E(PEG4Me) = (S)-18-amino-15-oxo-2,5,8,11-tetraoxa-14-azanonadecane-19-oic acid, COCCOCCOCCOCCNC(=O)CC[C@H](N[*:1])C(=O)[*:2]; Phe(4-OMe)(3) = (S)-2-amino-3-(4-methoxyphenyl)propanoic acid (source code F4OMe), COc1ccc(C[C@H](N[*:1])C(=O)[*:2])cc1; F4aao = (S)-2-amino-3-(4-(carboxymethoxy)phenyl)propanoic acid, O=C([C@H](Cc1ccc(OCC(=O)[*:3])cc1)N[*:1])[*:2]; Phe(4-OMe) = F4OMe = (S)-2-amino-3-(4-methoxyphenyl)propanoic acid, COc1ccc(C[C@H](N[*:1])C(=O)[*:2])cc1; E(NHdPEG1Me) = N5-(1,3-dimethoxypropan-2-yl)-L-glutamine, COCC(COC)NC(=O)CC[C@H](N[*:1])C(=O)[*:2]; dkCOmeglumine = N6-(methyl((2S,3R,4R,5R)-2,3,4,5,6-pentahydroxyhexyl)carbamoyl)-D-lysine; Trp(1-CH2CO) = O=C([C@H](Cc1cn(CC(=O)[*:3])c2ccccc12)N[*:1])[*:2]; Trp(5-Cl) = N[C@@H](Cc1c[nH]c2ccc(Cl)cc12)C(=O)O; Nle(6-morpholino) = N[C@@H](CCCCN1CCOCC1)C(=O)O; Phe(3-COOH) = N[C@@H](Cc1cccc(C(=O)O)c1)C(=O)O; Trp(7-aza) = N[C@@H](Cc1c[nH]c2ncccc12)C(=O)O; NMePhe(3-Cl) = CN[C@@H](Cc1cccc(Cl)c1)C(=O)O; NMePhe(4-F) = CN[C@@H](Cc1ccc(F)cc1)C(=O)O; 3Pal(6-NH2) = Nc1ccc(C[C@H](N)C(=O)O)cn1; NMeW = CN[C@@H](Cc1c[nH]c2ccccc12)C(=O)O; Lys(N3) = [N-]=[N+]=NCCCC[C@H](N)C(=O)O; NMeY = CN[C@@H](Cc1ccc(O)cc1)C(=O)O; NMeR = CN[C@@H](CCCNC(=N)N)C(=O)O; NMeF = CN[C@@H](Cc1ccccc1)C(=O)O; 3Pal = N[C@@H](Cc1cccnc1)C(=O)O; 4Pal = N[C@@H](Cc1ccncc1)C(=O)O

B1: 894_0259 (peptide)
peptide: {CH2CO}-AV[NMePhe(4-F)]V[Trp(5-Cl)]NY[Phe(4-OMe)]II[NMeR][dR]FYC-NH2
modifications: thioether N-15; not fully specified (residue 14); also: linker PEG4c, place not given here
B2: 894_0258 (peptide)
peptide: {CH2CO}-AV[NMePhe(4-F)]V[Trp(5-Cl)]NY[Phe(4-OMe)]IIR[dR]FYC-NH2
modifications: thioether N-15; not fully specified (residue 14); also: linker PEG4c, place not given here
B3: 894_0372 (peptide)
peptide: {CH2CO}-AV[NMePhe(3-Cl)]VWNY[F4aao]IIR[E(PEG8Me)][Phe(3-COOH)]YC-NH2
modifications: thioether N-15; not fully specified (residue 14); also: linker PEG4c, place not given here
B4: 894_0374 (peptide)
peptide: {CH2CO}-AV[NMePhe(3-Cl)]VWN[3Pal(6-NH2)][3Pal]IIR[E(PEG8Me)][Phe(3-COOH)]YC-NH2
modifications: thioether N-15; not fully specified (residue 14); also: linker PEG4c, place not given here
B5: 894_0373 (peptide)
peptide: {CH2CO}-AV[NMePhe(3-Cl)]VWNY[F4aao]IIR[E(PEG8Me)][4Pal]YC-NH2
modifications: thioether N-15; not fully specified (residue 14); also: linker PEG4c, place not given here
B6: 894_3193 (peptide)
peptide: AVFVWNYAIIRRAYC
modifications: 3:MeF3C,8:3Py,13:4Py,14:MeY; linker G-de-de-de-ds-ds-KN3; ClAc-1/C15 thioether ring; C-term NH2
B7: 894_0375 (peptide)
peptide: {CH2CO}-AV[NMePhe(3-Cl)]VWN[3Pal(6-NH2)][3Pal]IIR[E(PEG8Me)][4Pal]YC-NH2
modifications: thioether N-15; not fully specified (residue 14); also: linker PEG4c, place not given here
B8: 894_0253 (peptide)
peptide: {CH2CO}-AV[NMeF]V[Trp(5-Cl)]NY[Phe(4-OMe)]IIR[dR]FYC-NH2
modifications: thioether N-15; not fully specified (residue 14); also: linker PEG4c, place not given here
B9: 894_0261 (peptide)
peptide: {CH2CO}-AV[NMePhe(4-F)]V[NMeW]NY[Phe(4-OMe)]IIR[dR]FYC-NH2
modifications: thioether N-15; not fully specified (residue 14); also: linker PEG4c, place not given here
B10: 894_0262 (peptide)
peptide: {CH2CO}-AV[NMePhe(4-F)]V[NMeW]NY[Phe(4-OMe)]II[NMeR][dR]FYC-NH2
modifications: thioether N-15; not fully specified (residue 14); also: linker PEG4c, place not given here

target: T1, human transferrin receptor (hTfR) (human, UniProt P02786 89-760); assay: SPR; B = KD 1-100 nM
T1 construct: used as 0.5 uM hTfR dimer solution, immobilised on an NTA sensor chip (Ni capture plus EDC/NHS coupling); also called human TfR; TfR1
T1 sequence (P02786 89-760 limits assumed): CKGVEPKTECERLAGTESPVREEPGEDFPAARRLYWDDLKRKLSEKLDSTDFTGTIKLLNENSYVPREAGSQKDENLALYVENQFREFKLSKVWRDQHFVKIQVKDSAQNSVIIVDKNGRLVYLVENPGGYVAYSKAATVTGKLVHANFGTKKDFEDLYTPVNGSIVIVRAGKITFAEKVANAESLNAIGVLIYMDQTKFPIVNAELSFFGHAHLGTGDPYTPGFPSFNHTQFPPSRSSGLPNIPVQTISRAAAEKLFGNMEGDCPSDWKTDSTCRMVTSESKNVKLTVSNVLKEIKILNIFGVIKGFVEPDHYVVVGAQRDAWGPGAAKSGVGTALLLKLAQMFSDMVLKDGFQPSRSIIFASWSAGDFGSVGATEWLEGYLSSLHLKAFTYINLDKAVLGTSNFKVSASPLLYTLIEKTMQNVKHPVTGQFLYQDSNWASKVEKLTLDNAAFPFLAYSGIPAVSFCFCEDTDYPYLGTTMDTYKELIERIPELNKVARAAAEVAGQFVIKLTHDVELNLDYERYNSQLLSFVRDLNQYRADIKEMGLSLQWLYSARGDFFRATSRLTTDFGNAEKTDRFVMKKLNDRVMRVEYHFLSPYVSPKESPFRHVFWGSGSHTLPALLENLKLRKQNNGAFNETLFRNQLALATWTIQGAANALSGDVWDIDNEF
Summary of the method: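 Recombinant hTfR dimer immobilised on Ni-NTA chip with EDC/NHS coupling; running buffer 10 mM HEPES pH 8.0, 150 mM NaCl, 0.05% Tween 20, 0.1% BSA, 1.0% DMSO. Peptides injected at 5–100 nM in single-cycle kinetics; KD from least-squares sensorgram fitting.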

KD, 1 to 100 nM:
B1
B2
B3
B4
{CH2CO}-AV[NMePhe(3-Cl)]V[Trp(1-CH2CO)]NY[F4aao]II[E(NHdPEG1Me)]RF[NMeY]C-NH2 (thioether N-15; also: linker PEG4c, place not given here) [894_0396]
{CH2CO}-AV[NMePhe(3-Cl)]VWNY[3Pal]IIRR[4Pal][NMeY]CG-{dkCOmeglumine-dkCOmeglumine-dkCOmeglumine-dS-dS-Lys(N3)-NH2} (thioether N-15) [894_3192]
{CH2CO}-AV[NMePhe(3-Cl)]V[Trp(1-CH2CO)]NY[F4aao]II[E(PEG4Me)]RF[NMeY]C-NH2 (thioether N-15; also: linker PEG4c, place not given here) [894_0395]
{CH2CO}-AV[NMeF]VWNY[F4aao]IIRRY[NMeY]C-NH2 (thioether N-15; also: linker G-de-de-de-ds-ds-KN3, attachment not given here) [894_3169]
{CH2CO}-AV[NMePhe(3-Cl)]VWNY[Phe(4-OMe)(3)]IIKRF[NMeY]C (thioether N-15; not fully specified (C-terminus)) [894_3150]
B5
{CH2CO}-AV[NMePhe(3-Cl)]V[Trp(7-aza)]NY[F4aao]IIQ[Nle(6-morpholino)][Phe(3-COOH)][NMeY]C-NH2 (thioether N-15; also: linker PEG4c, attachment not given here) [894_0428]
{CH2CO}-AV[NMePhe(3-Cl)]V[Trp(7-aza)]NY[F4aao]IIQR[4Pal][NMeY]C-NH2 (thioether N-15; also: linker PEG4c, attachment not given here) [894_0424]
{CH2CO}-AV[NMePhe(3-Cl)]V[Trp(1-CH2CO)]NY[F4aao]IIQ[Nle(6-morpholino)][4Pal][NMeY]C-NH2 (thioether N-15; also: linker PEG4c, attachment not given here) [894_0420]
{CH2CO}-AV[NMePhe(3-Cl)]V[Trp(7-aza)]NY[F4aao]II[E(PEG8Me)][Nle(6-morpholino)][4Pal][NMeY]C-NH2 (thioether N-15; also: linker PEG4c, attachment not given here) [894_0426]
B6
{CH2CO}-AV[NMePhe(3-Cl)]V[Trp(1-CH2CO)]NY[F4aao]IIQR[Phe(3-COOH)][NMeY]C-NH2 (thioether N-15; also: linker PEG4c, attachment not given here) [894_0421]
{CH2CO}-AV[NMePhe(3-Cl)]V[Trp(1-CH2CO)]NY[F4aao]IIQR[4Pal][NMeY]C-NH2 (thioether N-15; also: linker PEG4c, place not given here) [894_0419]
{CH2CO}-AV[NMePhe(3-Cl)]VWN[3Pal(6-NH2)][F4aao]IIR[E(PEG8Me)][Phe(3-COOH)][NMeY]C-NH2 (thioether N-15; also: linker PEG4c, place not given here) [894_0376]
{CH2CO}-AV[NMeF]V[Trp(1-CH2CO)]NY[F4aao]IIRRY[NMeY]C-NH2 (thioether N-15; also: linker G-de-de-de-ds-ds-KN3, attachment not given here) [894_3170]
{CH2CO}-AV[NMeF]VWNYYIIRRY[NMeY]C-NH2 (thioether N-15; also: linker G-de-de-de-S-S-C(AcNMe), place not given here) [894_0393]
{CH2CO}-AV[NMePhe(3-Cl)]VWN[3Pal(6-NH2)][F4aao]IIR[E(PEG8Me)][4Pal][NMeY]C-NH2 (thioether N-15; also: linker PEG4c, place not given here) [894_0377]
{CH2CO}-AV[NMePhe(3-Cl)]V[Trp(7-aza)]NY[F4aao]IIQ[Nle(6-morpholino)][4Pal][NMeY]C-NH2 (thioether N-15; also: linker PEG4c, attachment not given here) [894_0425]
{CH2CO}-AV[NMeF]VWNYYIIRRY[NMeY]C-NH2 (thioether N-15; also: linker G-de-de-de-de-de-C(AcNMe), place not given here) [894_0394]
B7
{CH2CO}-AV[NMeF]VWNY[Phe(4-OMe)]IIR[dR]FYC-NH2 (thioether N-15; not fully specified (residue 14); also: linker PEG4c) [894_0283, listing 1 of 2 here]
B8
{CH2CO}-AV[NMeF]VWNY[Phe(4-OMe)]IIR[dR]FYC-NH2 (thioether N-15; not fully specified (residue 14); also: linker PEG4c) [894_0283, listing 2 of 2 here]
B9
{CH2CO}-AV[NMeF]VWNY[Phe(4-OMe)]II[NMeR]RFYC-NH2 (thioether N-15; not fully specified (residue 14); also: linker PEG4c) [894_0285]
B10
